The values that follow come from PMC5382721 (Cell reports, 2017).

Test [1] deals with GST-eIF3c-G_(1–58) (yeast (S. cerevisiae)) (UniProt P32497). In words: pull-down.
For test [2], the target named is GST-eIF3c-E_(87–163) (yeast (S. cerevisiae)) (UniProt P32497). Nature of the test: pull-down.
The target of test [3] is eIF1 (yeast (S. cerevisiae)) (UniProt P32911). In words: ITC. In general terms: In ITC the heat of successive injections is recorded.
A further test has as its target eIF1 (yeast (S. cerevisiae), UniProt P32911 1-108). Nature of the test: ITC.
A further test has as its target eIF1-K37E (yeast (S. cerevisiae), UniProt P32911 1-108, K37E). Nature of the test: ITC.
The next test deals with eIF1-L96P (yeast (S. cerevisiae), UniProt P32911 1-108, L96P). In words: ITC.
Chain of eIF1-L96P (P32911 whole entry L96P): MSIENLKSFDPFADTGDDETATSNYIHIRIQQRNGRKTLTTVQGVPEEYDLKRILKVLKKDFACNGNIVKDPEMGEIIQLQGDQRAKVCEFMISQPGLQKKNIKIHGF

Chain of eIF1 (P32911 whole entry): as the sequence (P32911 whole entry L96P) above, with P96L counted along it
Chain of eIF1 (yeast (S. cerevisiae)) (P32911 whole entry): as the sequence (P32911 whole entry L96P) above, with P96L counted along it
Chain of eIF1-K37E (P32911 whole entry K37E): as the sequence (P32911 whole entry L96P) above, with K37E, P96L counted along it

Turning to “eIF1 (from UniProt P32911 1-108) (natural protein)”, the amount of eIF1 bound relative to that bound to GST-eIF3c-F in test [1] and in test [2] was less than 10% each time.
Usually Kd stands for the free concentration of one partner at which half of the binding sites on the other are occupied at equilibrium, for simple one-to-one binding. A high value points to weaker binding. Take “eIF3c-E_(87–163) (from UniProt P32497 87-163) (domain or fragment)”: in test [3], the Kd was greater than 100000 nM and the stoichiometry N (eIF3c molecules bound per eIF1 molecule) was found to be 0.4.

B1: eIF3c-C_(36–87) (domain or fragment, yeast (S. cerevisiae), UniProt P32497 36-87, looked up)
chain: SESELDQESDDSFFNESESESEADVDSDDSDAKPYGPDWFKKSEFRKQGGGS
Molecule B1 showed a Kd with eIF1 of roughly 1000 nM.

B2: eIF3c-F_(1–87) (domain or fragment, yeast (S. cerevisiae), UniProt P32497 1-87, looked up)
chain: MSRFFSSNYEYDVASSSSEEDLLSSSEEDLLSSSSSESELDQESDDSFFNESESESEADVDSDDSDAKPYGPDWFKKSEFRKQGGGS
In turn, B2 had a Kd with eIF1 of roughly 1000 nM.

B3: eIF3c-B_(36–163) (domain or fragment, yeast (S. cerevisiae), UniProt P32497 36-163, looked up)
chain: SESELDQESDDSFFNESESESEADVDSDDSDAKPYGPDWFKKSEFRKQGGGSNKFLKSSNYDSSDEESDEEDGKKVVKSAKEKLLDEMQDVYNKISQAENSDDWLTISNEFDLISRLLVRAQQQNWGT
Regarding B3, in the test with eIF1-K37E, the “fold reduction of binding against WT eIF1” value worked out at 4 fold. For the same molecule, the “fold reduction of affinity against WT eIF1” value with eIF1-L96P came out at 10 fold.

B4: eIF3c-D_(58–163) (domain or fragment, yeast (S. cerevisiae), UniProt P32497 58-163, looked up)
chain: ADVDSDDSDAKPYGPDWFKKSEFRKQGGGSNKFLKSSNYDSSDEESDEEDGKKVVKSAKEKLLDEMQDVYNKISQAENSDDWLTISNEFDLISRLLVRAQQQNWGT
Regarding B4, in the test with eIF1, the Kd is roughly 8000 nM and the “stoichiometry N” value is 1 eIF3c molecules bound per eIF1 molecule.
